Test results taken from the RNAGym collection of RNA variant scans (doi:10.7554/elife.90254).

B1: LINE1-mini (parent)
chain: GGCAGAGCUCAACACAGCGUGGCAAAGUGGCUGUGGCUAGACUGCC

Variants of: B1
Assay: self-cleavage, relative activity (ratio to wild type); higher = more cleavage; in vitro, sequencing; the parent is a self-cleaving ribozyme

Compared with GGCAGAGCUCAAGACAGCGUGCCAAAGUGGCUGUGGCUAGACUGCC [C13G G22C], GGUAGAGCUCAACACAGCGUGGCCAAGUGGCUGUGGCUAGACUGCC [C3U A24C] is higher in self-cleavage: 0.05 for the first, 0.37 for the second.

Compared with GGCAGAGCUCAACACAGCGUGGCAAAAUGGCUGUUGCUAGACUGCC [G27A G35U], GGCAGAGCUCAAAACAGCGUGGCAAAGUGGCUGUGGCGAGACUGCC [C13A U38G] is lower in self-cleavage: 0.22 for the first, 0.03 for the second.

Going from CGCAGAGCUCAACACAGCGUGGCAAAGUGGCUGUGGCUACACUGCC [G1C G40C] to GGCAGAGUUCAACACAGCGUGGCAAAGUGGUUGUGGCUAGACUGCC [C8U C31U], the self-cleavage rises from 0.03 to 0.14.

Compared with GGCAGUGCUCAACACAGCGUGGCAAAGUGGAUGUGGCUAGACUGCC [A6U C31A], GGCAGAGCUCAACCCAGUGUGGCAAAGUGGCUGUGGCUAGACUGCC [A14C C18U] is lower in self-cleavage: 0.38 for the first, 0.07 for the second.

First: GGCAUAGCUCAACACACCGUGGCAAAGUGGCUGUGGCUAGACUGCC [G5U G17C]
Second: GGCAGAGCUUAACACAGCGUGGCAAAGUGACUGUGGCUAGACUGCC [C10U G30A]
The self-cleavage of the first is lower: 0.06 for the first, 0.54 for the second.

Going from GGCAGAGCUCAACGGAGCGUGGCAAAGUGGCUGUGGCUAGACUGCC [A14G C15G] to GGCAGAGCUCAACACAGCAUGGCAAAGUGGCUGUGGAUAGACUGCC [G19A C37A], the self-cleavage falls from 0.08 to 0.07.

Going from GGCAGAGCUCAACACAGCGUGGCAAAUUAGCUGUGGCUAGACUGCC [G27U G29A] to GGCAGAGCUCAAUACAGCGUGGCAAAGUGGCUGUGCCUAGACUGCC [C13U G36C], the self-cleavage falls from 0.96 to 0.11.

Going from GGCAGAGCUCAACACACCGUGGCAAAGUGGCUGUGGCUAGCCUGCC [G17C A41C] to GGCAGAGCUCAACACAGCGUGGCAAAGACGCUGUGGCUAGACUGCC [U28A G29C], the self-cleavage rises from 0.04 to 0.16.

Going from GGCAGAGCUCAAGACAGCGUGGCAAAGUGGCGGUGGCUAGACUGCC [C13G U32G] to GGCAGAGCGCAACACAGCGUGGCAAAGUGGCUGUGGCUAGAAUGCC [U9G C42A], the self-cleavage rises from 0.05 to 0.08.

Compared with GGCAGAGCUCAACACAGCGUGUCAAAGUGGCAGUGGCUAGACUGCC [G22U U32A], GGCAGAGCUCAACACACCGUGGCAAAGAGGCUGUGGCUAGACUGCC [G17C U28A] is higher in self-cleavage: 0.13 for the first, 1.16 for the second.

Compared with GGCAGAGCUCAACACAGCGUAGCAAAGUGGCUGUGGCUAGACUGGC [G21A C45G], GGCAGAGCUCAACACAUCGUGGCAAAGUGGCUGUGGCUAGACGGCC [G17U U43G] is lower in self-cleavage: 0.26 for the first, 0.06 for the second.

First: GGCAGAGCGCAACACAGCGUGGCAAAGUGGCUGGGGCUAGACUGCC [U9G U34G]
Second: AGCAUAGCUCAACACAGCGUGGCAAAGUGGCUGUGGCUAGACUGCC [G1A G5U]
The self-cleavage of the first is lower: 0.05 for the first, 0.08 for the second.

Going from GGCAGAGCUCAACACCGCGUGGCAAAGUGGCUGUGGCUAGACUCCC [A16C G44C] to GGCAGAGCUCAACACAGCGUGGCAAAGCGGCUGUGGAUAGACUGCC [U28C C37A], the self-cleavage rises from 0.02 to 0.03.

Compared with GGCAGAGCUCAACACAGCGUGCCAAAGUGGCUGUGGCUAGACUCCC [G22C G44C], GGCUGAGCUCAACACAGCGUGGCAAAGUGGCUGUGACUAGACUGCC [A4U G36A] is lower in self-cleavage: 0.41 for the first, 0.12 for the second.

Going from GGCAGAGCGCAACACAGCGUGGCAAAGUGGUUGUGGCUAGACUGCC [U9G C31U] to GGCAGAGCUCAACACAACGUGGCAAAGUGACUGUGGCUAGACUGCC [G17A G30A], the self-cleavage rises from 0.03 to 0.57.

Compared with GGCAGAGCUCAACACAGAGUGGCAAAGUGGCUGUGGCUAGAAUGCC [C18A C42A], GGCAGAGCUCUACACAGCGUGGCUAAGUGGCUGUGGCUAGACUGCC [A11U A24U] is higher in self-cleavage: 0.12 for the first, 0.21 for the second.

Compared with GGCAGAGCUCACCACAGAGUGGCAAAGUGGCUGUGGCUAGACUGCC [A12C C18A], GGCAGAGCUCAACACAGCGUGCCAAAGUGGCUGUCGCUAGACUGCC [G22C G35C] is higher in self-cleavage: 0.03 for the first, 0.08 for the second.

Going from GGCAGAGCUAAAUACAGCGUGGCAAAGUGGCUGUGGCUAGACUGCC [C10A C13U] to GGCAGAGCUCAACAUACCGUGGCAAAGUGGCUGUGGCUAGACUGCC [C15U G17C], the self-cleavage rises from 0.04 to 0.19.

First: AGCAGAUCUCAACACAGCGUGGCAAAGUGGCUGUGGCUAGACUGCC [G1A G7U]
Second: GGCAGAGCUCAACACAGCGUGGCAAUGUGGCUGGGGCUAGACUGCC [A26U U34G]
The self-cleavage of the first is higher: 0.3 for the first, 0.15 for the second.

Compared with GGCAGAGCUCAACACAGCGUGGCAAAGUGGCUGUGGCUAUGCUGCC [G40U A41G], GGCAGAGCUCAACACAGCGUGGUAAAGUGGCUGUGUCUAGACUGCC [C23U G36U] is lower in self-cleavage: 0.09 for the first, 0.04 for the second.

Going from GGCAGAGCUCAACACAGCGUGGCAAUGUGGCUGUGGCUAGACUGUC [A26U C45U] to GGCAGAGCUCAACAGAGCGUUGCAAAGUGGCUGUGGCUAGACUGCC [C15G G21U], the self-cleavage falls from 0.83 to 0.07.

GGCAGGGCUCAACACAGCGUGGCAAAGUGGCUGUGGCAAGACUGCC [A6G U38A] and GGCAGAGCGCAACACAGCGUGGCAAAGUGGCUAUGGCUAGACUGCC [U9G G33A] are the same in self-cleavage: 0.06 for the first, 0.06 for the second.

Going from GGCAGAGGUCAACACAGCGUGGCAAAGUGGCUCUGGCUAGACUGCC [C8G G33C] to AGCAGAGCUCAACACAGCGUGGCAAAGUGGCUGUGGUUAGACUGCC [G1A C37U], the self-cleavage rises from 0.04 to 0.08.

Compared with GUCAGAGCUCAACACAGGGUGGCAAAGUGGCUGUGGCUAGACUGCC [G2U C18G], GGCAGAGUUCAACACAGCGUGACAAAGUGGCUGUGGCUAGACUGCC [C8U G22A] is higher in self-cleavage: 0.03 for the first, 0.15 for the second.

First: GGUAGAGCUCAACACAGCGUGGCAAAGUGGCUGUGGCUAAACUGCC [C3U G40A]
Second: GGCAGAGCUCAAUACAGCGUGGCAAAGUGGCUGUGGCUAGACUGCA [C13U C46A]
The self-cleavage of the first is lower: 0.12 for the first, 0.22 for the second.

Going from GGCAGAGCUCGACACAGCGUGGCAAAGUGGCGGUGGCUAGACUGCC [A11G U32G] to GGCAGAGCUCAACACAGCGUGGCAAAGUGGCUGUGGCUAGACUACU [G44A C46U], the self-cleavage rises from 0.03 to 0.16.

First: GGCAGAGCUCUACACAGCGUGGCAAAGUGGCUGUGGCUAGACGGCC [A11U U43G]
Second: GGCAGAGCUCAACACAGCCUAGCAAAGUGGCUGUGGCUAGACUGCC [G19C G21A]
The self-cleavage of the first is lower: 0 for the first, 0.51 for the second.

First: GGCAGUGCUCAACACAGCGUGGCAAAGUGGCAGUGGCUAGACUGCC [A6U U32A]
Second: GACAGAGCUCUACACAGCGUGGCAAAGUGGCUGUGGCUAGACUGCC [G2A A11U]
The self-cleavage of the first is higher: 0.15 for the first, 0.12 for the second.
